Test [1] addresses T1, hFn14-Fc (Fc-tagged ectodomain of human Fn14) (human, UniProt Q9NP84 29-78).
T1 construct: also called Fc-tagged hFn14; not shown: Fc tag
Nature of the test: SPR (ProteOn XPR36), hFab amine-coupled, hFn14-Fc as analyte, Langmuir fit, average of 5 measurements. The method, then:
The affinity of wildtype Fab clone 6.5 and the light chain shuffled mutants was measured by surface Plasmon resonance (SPR) using the ProteOn XPR36TM instrument (BioRad). Individual channels of a six channel GLC chip were coupled with the relevant hFab ligand at 5 μg/ml in 0.1M sodium acetate buffer pH 4.5 using amine coupling according to the manufacturer's instructions. Five dilutions of analyte hFn14-Fc were prepared in PBS containing 0.005% Tween20 (running buffer) and allowed to flow over the coupled hFab at […] flow rate for 500 seconds to evaluate the “on rate” (ka). This was followed by flow with the running buffer for 1200 seconds to evaluate the “off rate” (kd). This process was repeated until the analyte dilution series allowed a good kinetic fit using the Langmuir statistical model for analysing the ka and kd, where the affinity constant (KD) is the kd/ka. The best fit data was analysed using the ProteOn software measured by Chi2, where the lowest value is the best fit of the model to the SPR binding curves.

The target of test [2] is T2, BSA (bovine, UniProt P02769).
T2 construct: also called bovine serum albumin
Nature of the test: ELISA of purified hFab 6.5 on a panel of coated antigens, absorbance 450 nm. In general terms: In an ELISA, binding on a coated surface is turned into a signal by an enzyme label.

Results on one molecule are retold here after US20170335004A1 (LA TROBE UNIVERSITY, published 2017).

T1 sequence (Q9NP84 29-78): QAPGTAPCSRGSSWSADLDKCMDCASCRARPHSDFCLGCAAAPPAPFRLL
T2 sequence (P02769 25-607 limits assumed): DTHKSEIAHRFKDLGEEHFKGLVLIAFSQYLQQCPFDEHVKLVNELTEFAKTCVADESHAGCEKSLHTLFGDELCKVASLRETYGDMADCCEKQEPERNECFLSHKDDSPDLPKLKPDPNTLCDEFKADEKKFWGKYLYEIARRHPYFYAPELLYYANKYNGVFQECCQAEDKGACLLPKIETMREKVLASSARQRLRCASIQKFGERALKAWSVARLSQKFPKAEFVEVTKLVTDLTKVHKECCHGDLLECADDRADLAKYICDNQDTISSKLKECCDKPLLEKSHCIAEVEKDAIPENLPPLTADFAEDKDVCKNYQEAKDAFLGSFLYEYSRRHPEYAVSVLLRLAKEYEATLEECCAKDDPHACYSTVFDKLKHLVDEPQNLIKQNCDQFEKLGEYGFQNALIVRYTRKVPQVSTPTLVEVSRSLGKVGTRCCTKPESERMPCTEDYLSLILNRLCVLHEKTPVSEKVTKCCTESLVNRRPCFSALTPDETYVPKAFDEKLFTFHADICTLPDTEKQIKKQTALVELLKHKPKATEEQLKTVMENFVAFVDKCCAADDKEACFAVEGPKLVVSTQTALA

B1: hFab 6.5 (Fab, V domains shown)
VH: QVQLVQSGGGLVKPGGSLRLSCAASGFTFTSYAMSWVRQAPGKGLEWVSAISGSGGSTYYADSVKGRFTISRDNPKNTLYLQMNSLRAEDTAVYYCARVRANYYYGMDVWGQGTLVTVSS
VL: LTQSPGTLSLSPGERATLSCRASQSVSSSTLAWYQQKPGQTPRLLIYGASTRATGIPARFSGSGSGTDFTLTISRLEPEDFAVYYCQQYGSSRLTFGGGTKVEIKR
notes: Human Fab from a phage display library, kappa light chain, expressed in the E. coli periplasm; also called clone 6.5; wildtype Fab 6.5
The Kd is the equilibrium constant for the complex coming apart. In general, koff refers to the rate constant with which the complex falls apart. Low values mean a long-lived complex, high ones a short-lived complex. The term kon denotes a measure of how fast the partners come together. Regarding B1, in test [1], the Kd stood at 22.1 nM, the koff amounted to 0.00207 s⁻¹ and the on-rate (kon) is 94000 M⁻¹ s⁻¹. For the same molecule, the binding result in test [2] is “no binding (tested: 10 ug/ml)”.
